For five substances, Kd, binding signal (fold lower affinity than WTgp5) and fold decrease in 2-aminopurine fluorescence of fork DNA (local base-pair unwinding), 2-AP results are on record in publication PMC8835902.

For data set [1], the target named is LDgp5 (LoopDel);thioredoxin (trx) D5A;E7A;beta-hairpin;loop;replaced;by;SGSG (bacteriophage T7;Escherichia coli?) (UniProt P00581+P0AA25). Put plainly: EMSA. Conditions: 20 mM Hepes pH 7.5, 1 mM EDTA, 100 mM KCl, 0.1 mM bME, 5% glycerol, 0.10 mg/mL BSA, 10 nM DNA, 25 C (30 min; 15 min + 15 min for supershift).
Data set [2] deals with WTgp5-trx complex (T7 gp5 DNA polymerase D5A, E7A with thioredoxin) (bacteriophage T7 | not stated) (UniProt P00581).

For orientation: Kd means the free concentration of one partner at which half of the binding sites on the other are occupied at equilibrium, for simple one-to-one binding. Regarding “GGATTATTTACATTGGCAGATTCACC / TTATTAGTTATGATATTCATGTATAGTTATATGGTGAATCTGCCAATGTAAATAATCC / TATTCATGTATAGTTATGTAGAGACCGAGATCCGCGCTGCCAGTCGGCAGAGCC [Fork template 0gap]”, the Kd in data set [1] stood at 0.13 µM.
Same read-out and setting: with “GGATTATTTACATTGGCAGATTCACC / TTATTAGTTATGATATTCATGTATAGTTATATGGTGAATCTGCCAATGTAAATAATCC / TATTCATGTATAGTTATGTAGAGTCCGAGATCCGCGCTGCCAGTCGGCAGAGCC [Fork template 1gap]” the figure was 0.13 µM; with “GGATTATTTACATTGGCAGATTCACC / TTATTAGTTATGATATTCATGTATAGTTATATGGTGAATCTGCCAATGTAAATAATCC / TATTCATGTATAGTTATGTAGAGTTCCGAGATCCGCGCTGCCAGTCGGCAGAGCC [Fork template 2gap]”, 0.13 µM.
Turning to “GGATTATTTACATTGGCAGATTCACC / TTATTAGTTATGATATTCATGTATAGTTATATGGTGAATCTGCCAATGTAAATAATCC [Linear template-58nt]”, the binding signal (fold lower affinity than WTgp5) in data set [1] was determined as 2.
In data set [2], “T7 gp4 E343Q with truncated C-terminal tails (from UniProt P03692 1-566) (enzyme)” gave a fold decrease in 2-aminopurine fluorescence of fork DNA (local base-pair unwinding), 2-AP at N+3, against the EQgp4-WTgp5 complex of 2 fold.
